From patent US20260139023A1

Molecular target: full-length integrin αVβ5 ectopically expressed on HEK293T cells (UniProt P06756)
Experiment: cell-based or functional assay

Sequence of full-length integrin αVβ5 ectopically expressed on HEK293T cells (P06756 31-1048 limits assumed, chain 1 of 2): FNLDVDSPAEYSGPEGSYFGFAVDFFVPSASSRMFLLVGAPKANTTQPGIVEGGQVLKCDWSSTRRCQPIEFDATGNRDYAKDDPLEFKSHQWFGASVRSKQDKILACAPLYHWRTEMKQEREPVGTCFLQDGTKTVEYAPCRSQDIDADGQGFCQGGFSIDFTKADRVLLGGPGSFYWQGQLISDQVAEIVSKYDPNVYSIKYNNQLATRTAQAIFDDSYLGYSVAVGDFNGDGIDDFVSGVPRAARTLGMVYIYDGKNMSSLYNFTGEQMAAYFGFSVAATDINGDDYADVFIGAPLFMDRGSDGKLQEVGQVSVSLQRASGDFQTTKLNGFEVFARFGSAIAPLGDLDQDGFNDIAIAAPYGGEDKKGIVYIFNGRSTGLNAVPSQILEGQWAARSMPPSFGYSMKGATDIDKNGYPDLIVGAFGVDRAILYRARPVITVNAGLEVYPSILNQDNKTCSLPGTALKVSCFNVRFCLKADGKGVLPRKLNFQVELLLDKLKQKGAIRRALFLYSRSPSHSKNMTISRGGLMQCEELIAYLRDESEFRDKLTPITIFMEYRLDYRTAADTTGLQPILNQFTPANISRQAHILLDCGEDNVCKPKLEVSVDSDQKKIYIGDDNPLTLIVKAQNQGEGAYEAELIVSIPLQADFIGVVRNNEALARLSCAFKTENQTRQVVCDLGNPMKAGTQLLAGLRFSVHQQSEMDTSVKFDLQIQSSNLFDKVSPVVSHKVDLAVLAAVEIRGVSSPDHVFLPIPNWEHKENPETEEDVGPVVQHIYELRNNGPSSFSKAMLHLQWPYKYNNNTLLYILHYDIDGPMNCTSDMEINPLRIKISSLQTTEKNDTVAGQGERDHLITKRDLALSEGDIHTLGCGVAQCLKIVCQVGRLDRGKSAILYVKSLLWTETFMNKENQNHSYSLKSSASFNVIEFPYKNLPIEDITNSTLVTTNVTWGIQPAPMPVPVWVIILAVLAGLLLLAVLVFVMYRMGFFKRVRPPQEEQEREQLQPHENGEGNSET
Sequence of full-length integrin αVβ5 ectopically expressed on HEK293T cells (P18084 24-799 limits assumed, chain 2 of 2, further chain): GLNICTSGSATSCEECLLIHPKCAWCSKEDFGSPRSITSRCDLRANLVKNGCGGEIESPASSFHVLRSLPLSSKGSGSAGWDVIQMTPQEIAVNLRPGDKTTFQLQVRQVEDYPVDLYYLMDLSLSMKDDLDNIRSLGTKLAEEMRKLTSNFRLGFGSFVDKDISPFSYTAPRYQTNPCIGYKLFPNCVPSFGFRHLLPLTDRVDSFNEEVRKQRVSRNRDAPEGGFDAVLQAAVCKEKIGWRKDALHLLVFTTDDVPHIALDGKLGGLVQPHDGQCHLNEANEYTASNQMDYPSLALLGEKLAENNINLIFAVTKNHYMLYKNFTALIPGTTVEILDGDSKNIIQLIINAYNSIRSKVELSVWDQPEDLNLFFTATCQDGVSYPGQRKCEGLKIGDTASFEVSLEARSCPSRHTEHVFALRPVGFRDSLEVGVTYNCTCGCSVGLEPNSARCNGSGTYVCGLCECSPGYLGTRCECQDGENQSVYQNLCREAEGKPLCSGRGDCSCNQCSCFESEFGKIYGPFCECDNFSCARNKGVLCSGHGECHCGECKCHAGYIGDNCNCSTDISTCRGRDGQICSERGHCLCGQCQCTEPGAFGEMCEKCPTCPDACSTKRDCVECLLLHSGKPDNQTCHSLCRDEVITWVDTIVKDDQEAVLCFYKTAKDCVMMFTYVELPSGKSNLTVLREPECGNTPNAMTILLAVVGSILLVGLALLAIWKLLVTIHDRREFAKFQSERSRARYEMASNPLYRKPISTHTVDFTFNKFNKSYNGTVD

concentration at maximal integrin signaling (pFAK western blot, HEK293T cells pretreated with Hsp90α): 0.1 nM | fold more potent integrin signaling than WT irisin: 5 to 10 fold
Substance: irisin N45Q mutant (irisin glycosylation mutant, recombinant, from mammalian Expi293 cells) (from UniProt Q8K3V5 60-171) (ligand)
